Earlier results as cited in PMC6155412.
pKd: −log10 of the molar value.

Biological target: FPR2 (Homo sapiens) (UniProt P25090)
Chain of UniProt P25090 (P25090 whole entry): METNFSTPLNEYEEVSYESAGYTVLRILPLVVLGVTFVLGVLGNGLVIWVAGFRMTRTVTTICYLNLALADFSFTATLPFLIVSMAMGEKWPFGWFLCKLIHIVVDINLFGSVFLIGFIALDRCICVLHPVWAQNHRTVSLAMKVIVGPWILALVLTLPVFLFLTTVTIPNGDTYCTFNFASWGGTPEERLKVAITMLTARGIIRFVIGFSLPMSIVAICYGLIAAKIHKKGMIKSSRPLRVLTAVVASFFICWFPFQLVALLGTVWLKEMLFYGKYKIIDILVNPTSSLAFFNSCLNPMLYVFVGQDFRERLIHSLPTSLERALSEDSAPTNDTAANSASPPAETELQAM

- pKd: 7.48
Substance: uteroglobin (UG) (from UniProt P11684)
